Consider five molecules from PMC4394031 (Structure (London, England : 1993), 2015).

One may read the IC50 as the concentration that gives 50% inhibition. In general, Kd refers to the concentration at which binding is half-saturated.

For data set [1], the target named is T1, AP-VEGF-C (alkaline phosphatase-tagged VEGF-C, residues 108–223) (UniProt P97953 108-223).
T1 sequence (looked up): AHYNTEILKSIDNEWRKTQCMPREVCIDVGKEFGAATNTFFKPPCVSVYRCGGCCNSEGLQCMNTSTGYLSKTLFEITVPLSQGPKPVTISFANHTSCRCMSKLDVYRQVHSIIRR
Briefly: plate competition assay with AP-tagged ligand.

Data set [2] concerns the target T2, Human Nrp2-b1b2 (Neuropilin-2 domains b1b2, residues 276–595) (human, UniProt O60462 276-595).
T2 sequence (looked up): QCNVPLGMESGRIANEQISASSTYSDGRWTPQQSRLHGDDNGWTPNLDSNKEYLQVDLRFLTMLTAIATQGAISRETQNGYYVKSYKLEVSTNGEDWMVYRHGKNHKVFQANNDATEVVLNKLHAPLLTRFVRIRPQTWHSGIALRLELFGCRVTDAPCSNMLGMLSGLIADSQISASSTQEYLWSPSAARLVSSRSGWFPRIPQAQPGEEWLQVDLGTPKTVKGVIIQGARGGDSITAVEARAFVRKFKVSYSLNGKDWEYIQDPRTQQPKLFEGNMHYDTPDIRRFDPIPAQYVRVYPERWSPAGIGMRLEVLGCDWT
Briefly: crystal structure.

In data set [3] the target is T2, Human Nrp2-b1b2 (Neuropilin-2 domains …). Briefly: plate competition assay with AP-tagged ligand.
Data set [4] deals with the molecule itself. Briefly: crystal structure.
The target in data set [5] is T2, Human Nrp2-b1b2 (Neuropilin-2 domains …). Briefly: differential scanning fluorimetry. On the technique in general: DSF heats the sample and reads unfolding from a dye or from intrinsic fluorescence.

B1: human Nrp2-b1 (residues 276–430) (domain or fragment, UniProt O60462 276-430, looked up)
chain: QCNVPLGMESGRIANEQISASSTYSDGRWTPQQSRLHGDDNGWTPNLDSNKEYLQVDLRFLTMLTAIATQGAISRETQNGYYVKSYKLEVSTNGEDWMVYRHGKNHKVFQANNDATEVVLNKLHAPLLTRFVRIRPQTWHSGIALRLELFGCRVT
Regarding B1, the IC50 in data set [1] was found to be 1.5 µM.
In the case of SIIRR [VEGF-C C-terminus (219-SIIRR-223), the C-terminal five amino acids of mature VEGF-C], the binding result in data set [2] is on record as “binds”.
Consider ATWLPPR [ATWLPPR, an optimized peptide inhibitor of Nrp], for which the IC50 in data set [3] is 10 µM.

B2: Nrp2-b1b2/VEGF-C fusion (human Nrp2 residues 276–595 with VEGF-C 219-SIIRR-223 fused to its C-terminus) (other)
chain: QCNVPLGMESGRIANEQISASSTYSDGRWTPQQSRLHGDDNGWTPNLDSNKEYLQVDLRFLTMLTAIATQGAISRETQNGYYVKSYKLEVSTNGEDWMVYRHGKNHKVFQANNDATEVVLNKLHAPLLTRFVRIRPQTWHSGIALRLELFGCRVTDAPCSNMLGMLSGLIADSQISASSTQEYLWSPSAARLVSSRSGWFPRIPQAQPGEEWLQVDLGTPKTVKGVIIQGARGGDSITAVEARAFVRKFKVSYSLNGKDWEYIQDPRTQQPKLFEGNMHYDTPDIRRFDPIPAQYVRVYPERWSPAGIGMRLEVLGCDWTSIIRR
On to B2, for which, in data set [4], the binding result is on record as “binds”.
As to WRQVHSIIRR [processed VEGF-C C-terminus peptide (215-RQVHSIIRR-223)], in data set [5], the affinity, expressed as Kd, was 199 µM and the “Tm of Nrp2-b1b2 with 0.5 mM peptide (48.8°C without)” value is 50.3 °C.
